# B1: KLHL20 (parent)
# chain: YQDMIYAVGGRDDTTELSSAERYN
# Variants of: B1
# Test: protein stability index of a GFP-peptide fusion (GPS, HEK-293T) (PSI 1-6); higher = more stable
# Settings: c terminus: a fixed tail appended
# 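Also: lentivirally expressed fusions sorted by FACS into six bins by GFP to DsRed ratio, PSI derived from sequencing read proportions per bin multiplied by bin number.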
row,Variant,protein stability index
1,YQDMIYAVGGMDDTTELSSAERYN,2.32
2,YQDMIYAVGGKDDTTELSSAERYN,2.55
3,YQDMIYAVGGEDDTTELSSAERYN,3
4,YQDMIYAVGGVDDTTELSSAERYN,2.16
5,YQDMIYAVGGIDDTTELSSAERYN,2.44
6,YQDMIYAVGGCDDTTELSSAERYN,2.69
7,YQDMIYAVGGDDDTTELSSAERYN,3.01
8,YQDMIYAVGGADDTTELSSAERYN,2.54
9,YQDMIYAVGGTDDTTELSSAERYN,2.23
10,YQDMIYAVGGNDDTTELSSAERYN,2.49
11,YQDMIYAVGGSDDTTELSSAERYN,2.9
12,YQDMIYAVGGWDDTTELSSAERYN,2.08
13,YQDMIYAVGGPDDTTELSSAERYN,2.57
14,YQDMIYAVGGFDDTTELSSAERYN,2.08
15,YQDMIYAVGGGDDTTELSSAERYN,2.33
16,YQDMIYAVGGYDDTTELSSAERYN,1.91
17,YQDMIYAVGGQDDTTELSSAERYN,2.75
18,YQDMIYAVGGLDDTTELSSAERYN,1.99
19,YQDMIYAVGGHDDTTELSSAERYN,2.1
20,YQDMIYAVGGRDDTTWLSSAERYN,2.23
21,YQDMIYAVGGRDDTTTLSSAERYN,2.17
22,YQDMIYAVGGRDDTTSLSSAERYN,1.91
23,YQDMIYAVGGRDDTTCLSSAERYN,1.5
24,YQDMIYAVGGRDDTTPLSSAERYN,2.05

row,Variant,protein stability index
1,YQDMIYAVGGRDDTTVLSSAERYN,2.78
2,YQDMIYAVGGRDDTTKLSSAERYN,1.85
3,YQDMIYAVGGRDDTTILSSAERYN,2.07
4,YQDMIYAVGGRDDTTHLSSAERYN,2.5
5,YQDMIYAVGGRDDTTALSSAERYN,1.95
6,YQDMIYAVGGRDDTTGLSSAERYN,2.28
7,YQDMIYAVGGRDDTTLLSSAERYN,2.67
8,YQDMIYAVGGRDDTTDLSSAERYN,2.34
9,YQDMIYAVGGRDDTTYLSSAERYN,1.69
10,YQDMIYAVGGRDDTTRLSSAERYN,2.51
11,YQDMIYAVGGRDDTTMLSSAERYN,2.08
12,YQDMIYAVGGRDDTTQLSSAERYN,2.36
13,YQDMIYAVGGRDDTTFLSSAERYN,1.75
14,YQDMIYAVGGRDDTTNLSSAERYN,2.38
15,YQDMIYAVGGRPDTTELSSAERYN,2.34
16,YQDMIYAVGGRMDTTELSSAERYN,1.76
17,YQDMIYAVGGRYDTTELSSAERYN,1.9
18,YQDMIYAVGGRNDTTELSSAERYN,2.43
19,YQDMIYAVGGRFDTTELSSAERYN,1.45
20,YQDMIYAVGGRTDTTELSSAERYN,1.58
21,YQDMIYAVGGRWDTTELSSAERYN,1.8
22,YQDMIYAVGGRQDTTELSSAERYN,2.09
23,YQDMIYAVGGRRDTTELSSAERYN,1.78
24,YQDMIYAVGGRIDTTELSSAERYN,1.6

row,Variant,protein stability index
1,YQDMIYAVGGRVDTTELSSAERYN,1.53
2,YQDMIYAVGGRKDTTELSSAERYN,2.1
3,YQDMIYAVGGREDTTELSSAERYN,2.74
4,YQDMIYAVGGRSDTTELSSAERYN,2.32
5,YQDMIYAVGGRADTTELSSAERYN,2.33
6,YQDMIYAVGGRGDTTELSSAERYN,2.47
7,YQDMIYAVGGRCDTTELSSAERYN,2.01
8,YQDMIYAVGGRHDTTELSSAERYN,2.17
9,YQDMIYAVGGRLDTTELSSAERYN,2.21
10,YQDMIYAVGGRDHTTELSSAERYN,1.98
11,YQDMIYAVGGRDKTTELSSAERYN,2.23
12,YQDMIYAVGGRDNTTELSSAERYN,2.01
13,YQDMIYAVGGRDLTTELSSAERYN,2.06
14,YQDMIYAVGGRDSTTELSSAERYN,2.18
15,YQDMIYAVGGRDATTELSSAERYN,1.66
16,YQDMIYAVGGRDCTTELSSAERYN,1.8
17,YQDMIYAVGGRDWTTELSSAERYN,1.77
18,YQDMIYAVGGRDVTTELSSAERYN,2.49
19,YQDMIYAVGGRDTTTELSSAERYN,2.18
20,YQDMIYAVGGRDGTTELSSAERYN,2
21,YQDMIYAVGGRDYTTELSSAERYN,1.97
22,YQDMIYAVGGRDMTTELSSAERYN,1.34
23,YQDMIYAVGGRDQTTELSSAERYN,2.11
24,YQDMIYAVGGRDRTTELSSAERYN,1.75

row,Variant,protein stability index
1,YQDMIYAVGGRDETTELSSAERYN,2.36
2,YQDMIYAVGGRDITTELSSAERYN,2.26
3,YQDMIYAVGGRDPTTELSSAERYN,2.03
4,YQDMIYAVGGRDFTTELSSAERYN,2.08
5,YQDMIYAVHGRDDTTELSSAERYN,1.94
6,YQDMIYAVIGRDDTTELSSAERYN,1.51
7,YQDMIYAVYGRDDTTELSSAERYN,1.32
8,YQDMIYAVKGRDDTTELSSAERYN,2.07
9,YQDMIYAVTGRDDTTELSSAERYN,2.4
10,YQDMIYAVMGRDDTTELSSAERYN,2.17
11,YQDMIYAVLGRDDTTELSSAERYN,2.01
12,YQDMIYAVRGRDDTTELSSAERYN,2.36
13,YQDMIYAVAGRDDTTELSSAERYN,1.94
14,YQDMIYAVVGRDDTTELSSAERYN,2.02
15,YQDMIYAVDGRDDTTELSSAERYN,2.88
16,YQDMIYAVWGRDDTTELSSAERYN,1.92
17,YQDMIYAVNGRDDTTELSSAERYN,1.95
18,YQDMIYAVPGRDDTTELSSAERYN,2.32
19,YQDMIYAVEGRDDTTELSSAERYN,2.53
20,YQDMIYAVQGRDDTTELSSAERYN,2.27
21,YQDMIYAVFGRDDTTELSSAERYN,2.15
22,YQDMIYAVCGRDDTTELSSAERYN,2.23
23,YQDMIYAVSGRDDTTELSSAERYN,1.85
24,YQDMIYAVGGRDDFTELSSAERYN,2.18

row,Variant,protein stability index
1,YQDMIYAVGGRDDHTELSSAERYN,1.98
2,YQDMIYAVGGRDDWTELSSAERYN,1.56
3,YQDMIYAVGGRDDPTELSSAERYN,2.89
4,YQDMIYAVGGRDDVTELSSAERYN,2.25
5,YQDMIYAVGGRDDCTELSSAERYN,2.47
6,YQDMIYAVGGRDDSTELSSAERYN,2.48
7,YQDMIYAVGGRDDNTELSSAERYN,2.36
8,YQDMIYAVGGRDDETELSSAERYN,2.78
9,YQDMIYAVGGRDDITELSSAERYN,2.09
10,YQDMIYAVGGRDDKTELSSAERYN,2.17
11,YQDMIYAVGGRDDLTELSSAERYN,2.48
12,YQDMIYAVGGRDDMTELSSAERYN,2.01
13,YQDMIYAVGGRDDDTELSSAERYN,2.79
14,YQDMIYAVGGRDDYTELSSAERYN,2.1
15,YQDMIYAVGGRDDGTELSSAERYN,2.47
16,YQDMIYAVGGRDDRTELSSAERYN,2.13
17,YQDMIYAVGGRDDQTELSSAERYN,2.35
18,YQDMIYAVGGRDDATELSSAERYN,1.82
19,YQDMIYAGGGRDDTTELSSAERYN,2.81
20,YQDMIYAKGGRDDTTELSSAERYN,2.44
21,YQDMIYAAGGRDDTTELSSAERYN,2.77
22,YQDMIYAPGGRDDTTELSSAERYN,2.79
23,YQDMIYAIGGRDDTTELSSAERYN,1.97
24,YQDMIYARGGRDDTTELSSAERYN,2.52

row,Variant,protein stability index
1,YQDMIYAHGGRDDTTELSSAERYN,2.84
2,YQDMIYAYGGRDDTTELSSAERYN,2.09
3,YQDMIYAFGGRDDTTELSSAERYN,1.87
4,YQDMIYASGGRDDTTELSSAERYN,2.65
5,YQDMIYAWGGRDDTTELSSAERYN,1.94
6,YQDMIYAEGGRDDTTELSSAERYN,3.38
7,YQDMIYAMGGRDDTTELSSAERYN,1.75
8,YQDMIYACGGRDDTTELSSAERYN,2.37
9,YQDMIYANGGRDDTTELSSAERYN,2.81
10,YQDMIYADGGRDDTTELSSAERYN,3.45
11,YQDMIYALGGRDDTTELSSAERYN,1.86
12,YQDMIYAQGGRDDTTELSSAERYN,2.6
13,YQDMIYATGGRDDTTELSSAERYN,2.41
14,YQDMIYAVGGRDDTTEASSAERYN,2.44
15,YQDMIYPVGGRDDTTELSSAERYN,3.07
16,YQDMIYNVGGRDDTTELSSAERYN,2.92
17,YQDMIYWVGGRDDTTELSSAERYN,2.92
18,YQDMIYRVGGRDDTTELSSAERYN,1.76
19,YQDMIYMVGGRDDTTELSSAERYN,1.96
20,YQDMIYYVGGRDDTTELSSAERYN,2.27
21,YQDMIYFVGGRDDTTELSSAERYN,1.69
22,YQDMIYLVGGRDDTTELSSAERYN,2.01
23,YQDMIYSVGGRDDTTELSSAERYN,2.55
24,YQDMIYVVGGRDDTTELSSAERYN,2.16

row,Variant,protein stability index
1,YQDMIYTVGGRDDTTELSSAERYN,2.27
2,YQDMIYHVGGRDDTTELSSAERYN,2.42
3,YQDMIYKVGGRDDTTELSSAERYN,2.12
4,YQDMIYQVGGRDDTTELSSAERYN,2.29
5,YQDMIYGVGGRDDTTELSSAERYN,3.01
6,YQDMIYIVGGRDDTTELSSAERYN,1.8
7,YQDMIYAVGYRDDTTELSSAERYN,1.8
8,YQDMIYAVGWRDDTTELSSAERYN,1.91
9,YQDMIYAVGLRDDTTELSSAERYN,1.78
10,YQDMIYAVGFRDDTTELSSAERYN,2.27
11,YQDMIYAVGPRDDTTELSSAERYN,2.44
12,YQDMIYAVGHRDDTTELSSAERYN,2.12
13,YQDMIYAVGCRDDTTELSSAERYN,2.23
14,YQDMIYAVGVRDDTTELSSAERYN,2.05
15,YQDMIYAVGMRDDTTELSSAERYN,1.87
16,YQDMIYAVGQRDDTTELSSAERYN,2.61
17,YQDMIYAVGERDDTTELSSAERYN,2.92
18,YQDMIYAVGNRDDTTELSSAERYN,2.45
19,YQDMIYAVGKRDDTTELSSAERYN,1.83
20,YQDMIYAVGRRDDTTELSSAERYN,1.86
21,YQDMIYAVGSRDDTTELSSAERYN,2.09
22,YQDMIYAVGTRDDTTELSSAERYN,1.82
23,YQDMIYAVGIRDDTTELSSAERYN,1.62
24,YQDMIYAVGDRDDTTELSSAERYN,2.81

row,Variant,protein stability index
1,YQDMIYAVGARDDTTELSSAERYN,1.83
2,YQDMIYAVGGRDDTFELSSAERYN,2.38
3,YQDMIYAVGGRDDTPELSSAERYN,2.17
4,YQDMIYAVGGRDDTQELSSAERYN,3.13
5,YQDMIYAVGGRDDTCELSSAERYN,2.49
6,YQDMIYAVGGRDDTIELSSAERYN,2.09
7,YQDMIYAVGGRDDTMELSSAERYN,1.92
8,YQDMIYAVGGRDDTHELSSAERYN,2.19
9,YQDMIYAVGGRDDTKELSSAERYN,2.13
10,YQDMIYAVGGRDDTAELSSAERYN,2.4
11,YQDMIYAVGGRDDTYELSSAERYN,1.8
12,YQDMIYAVGGRDDTDELSSAERYN,2.49
13,YQDMIYAVGGRDDTNELSSAERYN,2.33
14,YQDMIYAVGGRDDTRELSSAERYN,2.08
15,YQDMIYAVGGRDDTGELSSAERYN,2.21
16,YQDMIYAVGGRDDTVELSSAERYN,2.08
17,YQDMIYAVGGRDDTWELSSAERYN,1.8
18,YQDMIYAVGGRDDTLELSSAERYN,2.58
19,YQDMIYAVGGRDDTEELSSAERYN,2.44
20,YQDMIYAVGGRDDTSELSSAERYN,2.46
